Laboratory results reported in patent US20230228751 (APTAMER DIAGNOSTICS LIMITED, published 2023).

Legend:
[1] = biological target: SARS-CoV-2 spike protein trimer (SARS-CoV-2, UniProt P0DTC2); test: BLI; details: label: 5'-biotin
Text: The aptamers described herein have been isolated using recombinant proteins which represent portions of the full viral surface spike protein (SEQ ID NO: 117). In particular, an amino acid sequence comprising residues Ser686 to Pro1213 of SEQ ID NO: 119 was used to isolate aptamers against the S2 subunit from the SARS-CoV-2 spike protein. For diagnostic and therapeutic applications of the aptamers, it is desirable that the aptamers are capable of binding to the spike protein in the full trimeric form. For example, any aptamers which bind to regions of the monomer which are not accessible in the trimeric spike may not be capable of binding to the virus and so would be less likely to perform well as a diagnostic or therapeutic. Several of the isolated aptamers and Optimers isolated against the S2 subunit of the SARS-CoV-2 spike protein (SEQ ID NO:119), were assessed for binding to the full trimeric spike using the BLI assay described above. Briefly, exemplar Optimers were immobilised onto BLI sensor probes and assessed for the ability to bind to the full SARS-CoV-2 spike protein trimer at a range of concentrations (500 nM, 166 nM, 55 nM, 18.5 nM, 6.1 nM, 2 nM and 0.6 nM in 1× ‘high salt’ aptamer selection buffer). […] Importantly, each of the S2_A2_F12 SEQ ID NO: 179), S2_B1_F12 SEQ ID NO: 188) and S2_G1_F21 (SEQ ID NO: 190) aptamers has a rapid association rate (0-120 sec) and a slow dissociation rate (120-240 sec); which may be important for many diagnostic applications.

[2] = biological target: SARS-CoV-2 spike S2 subunit (SARS-CoV-2, UniProt P0DTC2 SEQ:1-528); test: BLI; details: label: 5'-biotin
[3] = biological target: SARS-CoV-2 spike S1 subunit (SARS-CoV-2, UniProt P0DTC2 SEQ:1-670); test: BLI; details: tags: His tag, SinoBiological 40591-V08B1; label: 5'-biotin
[4] = biological target: SARS-CoV spike S1 subunit (SARS-CoV, UniProt P59594 SEQ:14-667); test: ELONA; details: tags: SinoBiological; label: 5'-biotin

Binder | binding result [1] | binding result [2] | binding result [3] | binding result [4]
AATGCCGATGGGTCGGGGGGGTGGG (ssDNA) [S2_A2_F17] | binds | binds | – | –
AATGCCGTGGACTGGTCGGGTTTGGATTCGGCA (ssDNA) [S2_B1_F18] | binds | binds | – | –
TGGATATGGGTGGGAGGGATGGGT (ssDNA) [S2_G1_F22] | binds | binds | – | –
AATGCGTGGGAAGGGTGGGTGGGAGCATTGATA (ssDNA) [S1_A3_F18] | – | – | binds | no binding
